Data as given in patent US20020123614A1.

What was measured:
Conditions in all cases: remark: other sources report otherwise
[1] = target: T1, recombinant ICAM-1 Fc chimera, P05362; experiment: BIAcore; Kon calculated by Koff/KD
T1 chain: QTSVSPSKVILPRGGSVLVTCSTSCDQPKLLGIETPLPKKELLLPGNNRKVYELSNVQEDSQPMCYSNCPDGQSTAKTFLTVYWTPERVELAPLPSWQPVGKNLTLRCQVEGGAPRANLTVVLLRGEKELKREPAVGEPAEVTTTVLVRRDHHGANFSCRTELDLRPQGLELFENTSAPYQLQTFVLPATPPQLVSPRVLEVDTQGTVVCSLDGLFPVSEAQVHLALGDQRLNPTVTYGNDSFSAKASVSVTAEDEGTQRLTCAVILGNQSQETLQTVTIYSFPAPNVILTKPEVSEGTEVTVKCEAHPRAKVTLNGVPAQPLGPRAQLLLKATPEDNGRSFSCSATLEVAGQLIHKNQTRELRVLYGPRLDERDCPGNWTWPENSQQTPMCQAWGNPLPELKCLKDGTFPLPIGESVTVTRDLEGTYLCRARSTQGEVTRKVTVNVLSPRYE

[2] = target: T1, recombinant ICAM-1 Fc chimera, P05362; experiment: BIAcore; dissociation phase, 1:1 model
[3] = target: T1, recombinant ICAM-1 Fc chimera, P05362; experiment: BIAcore; Scatchard plots at steady state

kon [1]: 2220 M⁻¹ s⁻¹
koff [2]: 3 s⁻¹
Kd [3]: 1350 µM
B1: recombinant soluble wild-type αL I-domain (G128-Y307), E. coli, P20701 153-332 (receptor)
chain: GNVDLVFLFDGSMSLQPDEFQKILDFMKDVMKKLSNTSYQFAAVQFSTSYKTEFDFSDYVKRKDPDALLKHVKHMLLLTNTFGAINYVATEVFREELGARPDATKVLIIITDGEATDSGNIDAAKDIIRYIIGIGKHFQTKESQETLHKFASKPASEFVKILDTFEKLKDLFTELQKKIY
